One experiment addresses T1, Human CD39-L3 (human, UniProt O75355 44-485, limits assumed).
T1 construct: Recombinant protein coated in ELISA; also called NTPDase3; ENTPD3
T1 sequence: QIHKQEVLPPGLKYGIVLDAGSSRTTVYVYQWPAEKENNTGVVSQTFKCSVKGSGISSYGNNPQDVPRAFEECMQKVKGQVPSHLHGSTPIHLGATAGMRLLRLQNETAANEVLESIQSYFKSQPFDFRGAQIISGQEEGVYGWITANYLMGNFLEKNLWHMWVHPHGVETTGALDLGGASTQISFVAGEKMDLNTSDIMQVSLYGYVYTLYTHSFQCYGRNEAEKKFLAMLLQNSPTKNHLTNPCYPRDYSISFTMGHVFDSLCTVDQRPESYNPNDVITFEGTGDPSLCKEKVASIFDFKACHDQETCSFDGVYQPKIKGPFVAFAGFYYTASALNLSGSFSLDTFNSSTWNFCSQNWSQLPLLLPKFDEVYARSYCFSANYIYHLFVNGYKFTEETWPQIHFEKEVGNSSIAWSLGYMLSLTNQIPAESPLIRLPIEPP
Nature of the experiment: ELISA on coated recombinant human CD39-L3 [panel huCD39 L3]. As to the method: Wells were washed in TBS Tween 20, and further saturated 2H at RT in TBS Blocking buffer. Dose range concentration of primary antibody was incubated in TBS blocking buffer for 2 h at RT. Wells were washed in TBS Tween 20. […] Optical density was measured on Enspire™ at OD=450.
On the technique in general: ELISA stands for enzyme-linked immunosorbent assay.

For experiment [1], the target named is T2, human CD39 expressed on cells (human, UniProt P49961 1-510).
T2 construct: On CHO transfectants, HEK-293T transfectants (wild type), Ramos lymphoma cells or monocyte-derived dendritic cells, as named under assay; also called huCD39; CHO-huCD39
T2 sequence: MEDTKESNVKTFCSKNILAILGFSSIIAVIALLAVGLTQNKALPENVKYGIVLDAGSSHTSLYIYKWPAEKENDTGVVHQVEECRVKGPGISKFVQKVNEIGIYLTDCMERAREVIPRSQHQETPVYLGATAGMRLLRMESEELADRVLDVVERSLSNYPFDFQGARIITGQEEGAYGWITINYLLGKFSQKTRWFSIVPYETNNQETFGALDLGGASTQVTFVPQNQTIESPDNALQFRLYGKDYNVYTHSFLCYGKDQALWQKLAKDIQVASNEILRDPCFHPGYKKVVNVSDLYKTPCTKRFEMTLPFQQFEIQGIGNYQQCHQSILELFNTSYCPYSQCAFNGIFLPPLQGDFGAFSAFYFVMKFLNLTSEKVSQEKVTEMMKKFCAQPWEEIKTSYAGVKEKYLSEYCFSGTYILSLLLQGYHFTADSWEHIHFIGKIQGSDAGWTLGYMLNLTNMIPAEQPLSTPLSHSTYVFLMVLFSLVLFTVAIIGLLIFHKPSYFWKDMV
Nature of the experiment: flow cytometry titration on Ramos lymphoma cells, first experiment; Ramos cells, first set of experiments. How it is done:
Cells were incubated with various concentration of unlabeled anti-CD39 antibody from 30 μg/ml to 5×10⁻⁴ μg/ml, for 30 minutes at 4° C. After washes, cells were incubated with Goat anti-mouse H+L labeled secondary antibody for 30 min at 4° C.
A general note: A flow cytometer gives signals particle by particle.

B1: antibody I-394 (antibody, human IgG1, kappa, V domains shown)
VH: EVQLQQSGPELVKPGASVKMSCKASGYTFTDYNMHWVKQSHGRTLEWIGYIVPLNGGSTFNQKFKGRATLTVNTSSRTAYMELRSLTSEDSAAYYCARGGTRFAYWGQGTLVTVSA
VL: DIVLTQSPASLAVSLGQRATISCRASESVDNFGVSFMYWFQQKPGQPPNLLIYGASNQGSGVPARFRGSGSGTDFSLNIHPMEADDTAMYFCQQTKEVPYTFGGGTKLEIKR
notes: The hybridoma-derived mouse form was used in early screening
As usually defined, the EC50 is the concentration that produces a half-maximal response. For the molecule B1, the binding result in the experiment with Human CD39-L3 is on record as “no binding”. Besides, the EC50 in experiment [1] was 0.16 µg/mL.

Values taken from patent US20190218304A1 (INNATE PHARMA, published 2019).
